Test results: article doi:10.1101/2021.10.24.465637

Key:
[1] = biological target: SGHRT-FLAG (human SGHRT, C-terminal FLAG) (human); assay: SDS-PAGE and Western blot
[2] = biological target: SGHRT-HA (human SGHRT, C-terminal HA) (human); assay: SDS-PAGE and Western blot

stoichiometry N [1] | stoichiometry N [2] | Substance
2 |  | SGHRT-FLAG (human SGHRT, C-terminal FLAG) (peptide)
 | 2 | SGHRT-HA (human SGHRT, C-terminal HA) (peptide)
